Reference: the supplement of paper PMC10567573
± gives the standard deviation.

Experiment: protein stability index of a GFP-peptide fusion (GPS, HEK-293T) (PSI 1-6); higher = more stable
[1] = treatment: DMSO, c terminus: a fixed tail appended
[2] = treatment: MLN4924 1 uM, 8 h, c terminus: a fixed tail appended
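Also: 24-mer peptide tiles fused after GFP, lentivirally expressed, FACS-sorted into six equal bins by GFP/DsRed ratio, decoded by Illumina sequencing, PSI is the read-weighted mean bin number.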

Sequence	protein stability index [1]	protein stability index [2]	protein stability index (treatment: DMSO, c terminus: native)	protein stability index (treatment: MLN4924 1 uM, 8 h, c terminus: native)
SKLCTSYSHSSTRDGRRDRYSSDT [GOSR1]	4.32 ± 0.25	4.18 ± 0.16	–	–
ACYFGHRQVVQDLLKAGAEVNVLN [OSBPL1A]	2.46 ± 0.2	2.6 ± 0.38	–	–
VYAGRPLSVIQMVAFLEQRASALL [FBXO34]	1.98 ± 0.39	2.29 ± 0.35	–	–
QFANLVLHQTVERIHVGKKYGDIP [LSM1]	2.13 ± 0.22	2.09 ± 0.23	–	–
TTIEDEDAKARKQEIIKTTEQLIE [CAMK2B]	5.14 ± 0.22	5.32 ± 0.24	–	–
CDKHSKLFEEPEDPSNRSFFSEII [PPP2R2C]	3.36 ± 0.17	3.57 ± 0.2	–	–
PLMGETQERERVLTHFSRRYCQCN [PSD2]	3.13 ± 0.38	3.62 ± 0.25	–	–
CNCALEELRLVFGPLGDQLHAQLR [ELF3]	2.46 ± 0.86	2.33 ± 0.38	–	–
ASQSPKKPPAKDPLADLNIKDFL [SNAP91]	–	–	4.45 ± 0.29	4.58 ± 0.34
MKGRGQLEKPPAPNQAMVVAAAGD [TBC1D10A]	5 ± 0.26	4.94 ± 0.49	–	–
YSFRKLPDTQLLKFQLNKYTGEIK [PCDHGA10]	2.39 ± 0.37	2.54 ± 0.3	–	–
RNTKRDVTLEASRENSKPRAILKP [PPP2R2B]	4.44 ± 0.47	4.79 ± 0.056	–	–
RRFLLCLYLVGFLDLFGVSMVVPL [MFSD9]	2.91 ± 0.57	3.4 ± 0.17	–	–
ELYVFGGVRSREDAQGSEMVTCKS [GAN]	4.08 ± 0.38	4.15 ± 0.34	–	–
YHAVVEPMLWNPSGTPKRYSLELG [C22orf31]	2.77 ± 0.54	2.81 ± 0.17	–	–
LGNLVEGMDFHRFYFENALSKSNK [CAMK2D]	2.89 ± 0.2	3.23 ± 0.066	–	–
ENLAHHLEIDSGVITLDPQTASRS [TRIM15]	4.96 ± 0.11	4.97 ± 0.27	–	–
VATNSAGTRYSAPANLYVRELREV [PTPRD]	3.05 ± 0.32	3.45 ± 0.37	–	–
SGGITHDTFQKELMCFDPDTDKWI [KLHL13]	3.94 ± 0.16	4.17 ± 0.25	–	–
ELEPLKGNFDWEAIFDAGTLGGEL [FOXJ1]	4.2 ± 0.39	4.05 ± 0.46	–	–
FVERVRKRGFEVVYMTEPIDEYCV [HSP90AB1]	–	2.53 ± 0.26	–	–
KVWSLTGQVAEDRFPESHLPIQTP [TLE6]	3.58 ± 0.21	3.47 ± 0.39	–	–
ETAAGKGKGEARARLKRSQSFGVA [SMTNL2]	4.39 ± 0.18	4.71 ± 0.12	–	–

Sequence	protein stability index [1]	protein stability index [2]	protein stability index (treatment: DMSO, c terminus: native)	protein stability index (treatment: MLN4924 1 uM, 8 h, c terminus: native)
RKEMATILSKMPKPKPPPNSEGEQ [CCNC]	5.06 ± 0.34	5.06 ± 0.19	–	–
RPCRKFLLTGQCDFGSNCRFSHMS [ZMAT5]	4.2 ± 0.74	4.28 ± 0.58	–	–
KVVEAHKIVLCAVSHVFMLLFNVK [RHOBTB3]	2.81 ± 0.64	3.07 ± 0.46	–	–
VILEVSLEGSHDTANCEACTLGIC [RTP4]	3.86 ± 0.13	3.78 ± 0.28	–	–
DSRIRFGFLTVTNLGVENMNHYKK [PTPN9]	2.53 ± 0.19	2.7 ± 0.31	–	–
EISAYRKLLQGEEERLKLSPSPSS [LMNB1]	3.78 ± 0.37	4.16 ± 0.61	–	–
ATLKGPDSHYGTKGLKKVVHETPA [BTBD1]	4.21 ± 0.34	4.543 ± 0.04	–	–
MNGHQNGLDSPPLYPSAPILGGSG [ESRRG]	3.91 ± 0.25	3.93 ± 0.3	–	–
PTYGRSFTLASSSDTRVGAPATGS [CHIT1]	4.29 ± 0.25	4.12 ± 0.36	–	–
QLGLGRGASTFKEEPQTVPEARSR [JUNB]	5.04 ± 0.1	5.22 ± 0.26	–	–
VVCRQLGLGFASNAFQETWYWHGD [LOXL2]	2.55 ± 0.55	2.42 ± 0.31	–	–
PVKTLPFSPSQFLNFWNKQDTLEL [MYBL2]	2.36 ± 0.37	2.43 ± 0.31	–	–
SKPSIQPKPLLLPAAPKTQTISSI [ATF6]	3.88 ± 0.32	3.82 ± 0.31	–	–
DYLPLTALVDGQIFCLHGGLSPSI [PPP2CA]	2.58 ± 0.93	2.21 ± 0.41	–	–
DISETFNHANGLTLVSRAHQLVME [PPP2CA]	2.79 ± 0.12	2.82 ± 0.29	–	–
RLEPLEHRRRTICGTPNYLSPEVL [PLK2]	3.55 ± 0.19	3.67 ± 0.1	–	–
QKRETLSPLCLIPMVTSPREEQQL [KCTD13]	3.98 ± 0.18	4.08 ± 0.15	–	–
DPSTGCYMYYFQYLSKTYCVDATR [KMT5A]	2.25 ± 0.34	2.18 ± 0.61	–	–
ELDDPGQPVSLRRRKREVLVEDMV [ZNF24]	4.66 ± 0.12	4.68 ± 0.17	–	–
RQLTKPRPVILDPADPTGNLGGGD [OAS1]	4.65 ± 0.23	4.48 ± 0.31	–	–
YVTTNVSLIPPRSEQLVNFTGKAE [TMEM106C]	2.49 ± 0.57	2.8 ± 0.68	–	–
GGGDEDGSLGSRAEPAPRAREGGG [SMAD6]	5.55 ± 0.17	5.51 ± 0.4	–	–
QNMMNHCNLWDSHHPEVPQRILRI [HDAC6]	2.2 ± 0.24	2.15 ± 0.083	–	–

Sequence	protein stability index [1]	protein stability index [2]	protein stability index (treatment: DMSO, c terminus: native)	protein stability index (treatment: MLN4924 1 uM, 8 h, c terminus: native)
MQRPYDSRTCIGSSHSRGPLSWAP	3.1 ± 0.31	2.94 ± 0.05	–	–
EAVFGKYGRIVEVLLMKDRETNKS [RBMX]	2.53 ± 0.29	2.85 ± 0.52	–	–
FTDFNATSALFWEQHDLVYGDWTS [CLPTM1]	2.29 ± 0.67	2.53 ± 0.27	–	–
GIPNAIISVEGINHDIRTANDGDY [CPXM2]	4.55 ± 0.2	4.71 ± 0.16	–	–
WSSRSPQERSRVLNQVADLLEQSL [ALDH8A1]	2.8 ± 0.12	3.08 ± 0.54	–	–
EPNTFSPANVDASVMYRKWKESKG [CDC34]	4.69 ± 0.15	4.59 ± 0.17	–	–
KREREVDEDSEPEREVRAKNGRVD [USP39]	5.46 ± 0.081	5.69 ± 0.12	–	–
ESAFKLSTGTSRWPSAKSAGWTLA [SCNN1D]	2.46 ± 0.21	3.03 ± 0.17	–	–
KATNVVMNYSEIESKVREATNDDP [CLINT1]	5.35 ± 0.27	5.34 ± 0.15	–	–
SPPPAPTSSTFGLQDGNLRAPHKE [CHCHD6]	5.11 ± 0.5	5.32 ± 0.14	–	–
LLSDGSNTLSVSYKKGRMMKDISN [SLC6A17]	3.03 ± 0.27	3.35 ± 0.31	–	–
LKPHLEGAAFRDHQLLEPIRDFEA [TRIM29]	3.88 ± 0.31	4.26 ± 0.25	–	–
EIIELRRTVNALEIELQAQHNLRY [KRT33B]	2.21 ± 0.22	2.08 ± 0.14	–	–
FCYCAGSHKRKRSSGSFCYCHPDS [GMCL1]	2.56 ± 0.73	3.19 ± 0.61	–	–
AEGPNRLLYKDGFSTILHLLLGSP [LPCAT4]	2.23 ± 0.98	2.08 ± 0.29	–	–
RMLTDKEREMAEIRDQMQQQLNDY [LMNB1]	4.93 ± 0.3	5.08 ± 0.19	–	–
ISNGDFESYTKMCDPGMTAFEPEA [CAMK2A]	4.48 ± 0.18	4.66 ± 0.25	–	–
VCVGSDVTSIHKYMVRRYFNKPSR [MYORG]	2.37 ± 0.2	2.34 ± 0.18	–	–
VSTKEQILDLLVLEQFLSILPKEL [ZSCAN9]	3.21 ± 0.93	3.02 ± 0.65	–	–
TGELVGPFVSAMPTPMPHNKGTRF [ZBED2]	3.64 ± 0.11	3.79 ± 0.23	–	–
ARVNENLARKIASRNEFDRTIAET [SSNA1]	3.95 ± 0.15	4.06 ± 0.2	–	–
RKDVGCNRFEVTLEKSNKNFSKKI [VPS39]	3.62 ± 0.22	3.98 ± 0.2	–	–
SYQDWQQNLYFNCSSPGVQACSLP [TSPAN10]	2.32 ± 0.28	2.62 ± 0.2	–	–

Sequence	protein stability index [1]	protein stability index [2]	protein stability index (treatment: DMSO, c terminus: native)	protein stability index (treatment: MLN4924 1 uM, 8 h, c terminus: native)
QALQKEKETLAVNYEKEEEFLTNE [CCDC6]	5.39 ± 0.15	5.3 ± 0.24	–	–
SLFAFKSFRENWQRAWVRALNEQA [C2CD2L]	2.15 ± 0.08	2.1 ± 0.23	–	–
SVIEPVQESSFRSRKIAVEDENDL [MIA2]	5.05 ± 0.49	5.21 ± 0.49	–	–
CYVSRRLSQLSSHDPLWRRHCKKY [FBXO3]	2.32 ± 0.12	2.4 ± 0.23	–	–
EVHRLIEGKAPIISGVTKAISSPT [TPPP]	3.42 ± 0.18	3.84 ± 0.28	–	–
VPEEPPVKKLMRTSTPPPASVINN [ZBED1]	4.89 ± 0.29	4.94 ± 0.19	–	–
KERQKKDNHNLIERRRRFNINDRI [TFE3]	3.95 ± 0.36	4.08 ± 0.14	–	–
LPAGPGEEWERRPQEPRPPKRATK [CPXM2]	5.04 ± 0.53	5.44 ± 0.28	–	–
PEGSQDRNTSWGVVQEPPGRASRF [TLE6]	4.83 ± 0.23	4.57 ± 0.14	–	–
CPVPAHRRGSWRLPYTDGLSWELL [CTBP1-DT]	2.49 ± 0.34	2.59 ± 0.31	–	–
GPLPPAPAMVRISKPKTFQAYLDD [YPEL3]	3.73 ± 0.18	4.33 ± 0.37	–	–
NVLHGYPKDIYSSFGFPRTVKHID [MMP1]	2.63 ± 0.098	2.74 ± 0.24	–	–
SLCKALAQKLTIRLSSRYRYGQLI [TRIP13]	3.01 ± 0.47	3.16 ± 0.66	–	–
SVAEGYYSHRETVNGSWYIQDLCE [CASP6]	3.23 ± 0.22	3.11 ± 0.35	–	–
CQEEQLRSHENKLRQLTAELAEHR [PSD2]	4.41 ± 0.25	4.34 ± 0.16	–	–
HSRKTVLIKTIETRNGEVVTESQK [PRPH]	4.71 ± 0.27	4.8 ± 0.32	–	–
DIIRKQVLGTKVDAERDGVKVPTT [CDC34]	4.2 ± 0.34	4.23 ± 0.17	–	–
LFPGRVSVDLMLGLPAQQVGPWLG [RSAD1]	2.41 ± 0.86	2.32 ± 0.9	–	–
KLWDLRTTKCVRQYEGHVNEYAYL [DCAF4]	2.38 ± 0.21	2.27 ± 0.22	–	–
HNRYTENSLRGVILDIHFLSQADF [FUT8]	2.55 ± 0.67	2.41 ± 0.43	–	–
